Measurements reported in patent US20230144799A1 (published 2023).
*1 amine or outer side, *2 acyl side, *3 side chain or, on linkers, in order; H or OH if unused. Bridges are numbered along the chain shown (N, C = ends). Primed or numbered codes have the meaning given here. Where no end group is shown, it is not given here. [ ]: non-standard residue; d: D form. Sar10″ = ten sarcosine residues, CN(CC(=O)N(C)CC(=O)N(C)CC(=O)N(C)CC(=O)N(C)CC(=O)[*:2])C(=O)CN(C)C(=O)CN(C)C(=O)CN(C)C(=O)CN(C)C(=O)CN(C)[*:1]; TATA = O=C(CC[*:1])N1CN(C(=O)CC[*:2])CN(C(=O)CC[*:3])C1; Hyp = O=C(O)[C@@H]1C[C@@H](O)CN1; hArg = N=C(N)NCCCC[C@H](N)C(=O)O; βAla = NCCC(=O)O

B1: BCY6173 (peptide)
peptide: [βAla][Sar10″]A[hArg]DC[Hyp]LVNPLCLHP[dD]W[hArg]C-NH2
modifications: linker 6-13-20 via TATA (inferred); also: conjugated to DM1-SS(SO3H)- linker/toxin, attachment site not given here
B2: BCY6136 (peptide)
peptide: [βAla][Sar10″]A[hArg]DC[Hyp]LVNPLCLHP[dD]W[hArg]C-NH2
modifications: linker 6-13-20 via TATA (inferred); also: conjugated to ValCit-MMAE linker/toxin, attachment site not given here
notes: also called BT5528

Molecular target: T1, Rat EphA2, biotinylated (in house) (Rat)
T1 construct: SPR target captured on streptavidin; also called Rat EphA2 (SPR)
Assay: SPR (Biacore 3000), biotinylated rat EphA2 on streptavidin, 1:1 model

T1 sequence (Q03145 other isoform, or with tags, fused parts or gaps): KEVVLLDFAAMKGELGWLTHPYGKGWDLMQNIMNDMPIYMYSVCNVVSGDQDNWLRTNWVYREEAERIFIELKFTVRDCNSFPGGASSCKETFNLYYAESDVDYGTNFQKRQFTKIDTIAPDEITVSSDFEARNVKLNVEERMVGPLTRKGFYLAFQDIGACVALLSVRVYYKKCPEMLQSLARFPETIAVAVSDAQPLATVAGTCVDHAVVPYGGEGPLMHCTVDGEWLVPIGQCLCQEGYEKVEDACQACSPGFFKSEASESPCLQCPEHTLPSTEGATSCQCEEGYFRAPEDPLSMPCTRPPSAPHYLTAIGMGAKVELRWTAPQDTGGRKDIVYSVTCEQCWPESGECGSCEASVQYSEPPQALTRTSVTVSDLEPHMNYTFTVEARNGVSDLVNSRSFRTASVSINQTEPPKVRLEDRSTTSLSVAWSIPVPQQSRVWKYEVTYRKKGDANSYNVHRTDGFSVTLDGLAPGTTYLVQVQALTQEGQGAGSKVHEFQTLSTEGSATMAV

| Binder | Kd [nM] | t1/2 [min] |
| --- | --- | --- |
| B1 | 1.1 | 12 |
| B2 | 2.96 | 12.6 |
